Common to all, as to experiment: cell-based or functional assay
Assay [1] addresses 배양된 세포에 의해 내인적으로 생성되는 TGF-β.
Assay [2] has as its target 인간 TGF-β1 (human TGF-β1) (human) (UniProt P01137).
Assay [3] deals with 인간 PD-1 (human PD-1) (human) (UniProt Q15116).
Sequence of UniProt Q15116 (Q15116 25-288): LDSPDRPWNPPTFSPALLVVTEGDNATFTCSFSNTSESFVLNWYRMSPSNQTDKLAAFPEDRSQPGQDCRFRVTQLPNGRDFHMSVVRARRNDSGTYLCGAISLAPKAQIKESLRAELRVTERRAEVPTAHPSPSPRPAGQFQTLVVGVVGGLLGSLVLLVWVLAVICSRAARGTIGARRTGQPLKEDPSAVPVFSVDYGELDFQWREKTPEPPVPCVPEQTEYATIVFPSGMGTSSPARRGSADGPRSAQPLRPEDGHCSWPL

Sequence of UniProt P01137 (P01137 279-390 limits assumed): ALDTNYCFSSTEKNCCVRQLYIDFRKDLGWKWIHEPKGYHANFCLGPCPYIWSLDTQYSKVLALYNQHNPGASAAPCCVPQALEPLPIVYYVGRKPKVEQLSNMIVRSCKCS

The substance “항-HEL hIgG4 (인간 IgG4, 카파 항-계란 라이소자임 항체, Crown Bioscience) (antibody)” showed an iTreg(FOXP3+CD25+) 백분율, 자극된 인간 CD4+ T 세포, 항체 50 ㎍/㎖, 외인성 TGF-β 없음 (항체 없이 15%) in assay [1] of 20%. In assay [2], the NFAT-루시퍼라제 상대 발광 단위, 18 ng/㎖ TGF-β1로 12일 사전-처리된 Jurkat T 세포, 항-PD-1 Ab 존재 하 CHO-K1 공동-배양 (Ab 부재: 638866) came out at 639000 RLU and the iTreg(CD25+FOXP3+) 백분율, 자극된 인간 CD4+ T 세포 + 2 ng/㎖ 인간 TGF-β1, 항체 200 ㎍/㎖ 및 6.25 ㎍/㎖ (항체 없이 55%) was 60%.

In the case of “마우스 항-hPD-1 IgG (BioLegend Cat#329912) (antibody)”, in assay [3], the NFAT-루시퍼라제 상대 발광 단위, 인간 PD-1 발현 Jurkat T 세포와 인간 PD-L1 발현 CHO-K1 세포의 24시간 공동-배양 amounted to 866000 RLU; the 루시퍼라제 활성의 배율 변화, 항-hPD-1 항체 대 이소형 대조군 (234963 RLU) is 3.69 배; the 루시퍼라제 활성의 배율 변화, 항-hPD-1 항체 대 항체 부재 (206043 RLU) was 4.2 배.

The record behind these values is patent KR20190105077A.
